Measurements: US20240309084A1 (Novartis, published 2024)
Where two headings read alike, the source gives them in different places.

B2: GalNAc-labeled LDLR conjugate (LDLR193 (193-720)(N515Q)(N657Q)_SrtA_CHis) (receptor)
chain: not shown
modifications: C-terminal sortase A ligation to GGG-triGalNAc at the LPETGG motif
notes: also called GalNAc trimer-anti-LDLR protein conjugate
B3: recombinant extracellular domain of human ASGPR1 with N-terminal biotinylated Avitag (receptor, UniProt P07306 62-291, looked up)
chain: QNSQLQEELRGLRETFSNFTASTEAQVKGLSTQGGNVGRKMKSLESQLEKQQKDLSEDHSSLLLHVKQFVSDLRSLSCQMAALQGNGSERTCCPVNWVEHERSCYWFSRSGKAWADADNYCRLEDAHLVVVTSWEEQKFVQHHIGPVNTWMGLHDQNGPWKWVDGTDYETGFKNWRPEQPDDWYGHGLGGGEDCAHFTDDGRWNDDVCQRPYRWVCETELDKASQEPPLL
modifications: biotin on the N-terminal Avitag
notes: extracellular domain; also called hASBPR1; AGSPR1; not shown: N-terminal Avitag

Assays:
His-ASGPR1(62-291) = biological target: T1, His-ASGPR1(62-291) (UniProt P07306 62-291); test: SPR, ternary format; panel title: hASGPR1 Binding Immobilized Bispecific Ab Bound to hPCSK9
T1 construct: range 62-291; also called ASGPR1 (analyte of the sandwich SPR assay); not shown: His tag
T1 sequence (looked up): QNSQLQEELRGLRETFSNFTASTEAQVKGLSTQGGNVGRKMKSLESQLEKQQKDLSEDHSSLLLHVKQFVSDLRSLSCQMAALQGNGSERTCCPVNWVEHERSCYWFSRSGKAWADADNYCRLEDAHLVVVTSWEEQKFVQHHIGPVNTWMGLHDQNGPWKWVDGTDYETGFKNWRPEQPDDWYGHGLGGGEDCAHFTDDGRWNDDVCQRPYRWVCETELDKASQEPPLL

[1] = biological target: B3; test: SPR, stepwise (single-cycle) injections of the bispecific Ab over immobilised hASGPR1
Experimental: (§1) ASGPR SPR experiments were performed on either Biacore T200 or Biacore 8K. The assay was optimized for Biacore SA chip in running buffer consisting of 20 mM HEPES, 300 mM NaCl, 2 mM CaCl₂), 0.01% tween-20, 2% DMSO, pH 7.4. Recombinant extracellular domain of human ASGPR1 with N-terminal biotinylated Avitag was diluted to 20 μg/mL in running buffer, and immobilized onto SA chip after it was preconditioned with at least four 60-second injections at 30 μL/min of 1 M NaCl/40 mM NaOH solution. Protein immobilization level varied from 500 RU to 3500 RU dependent on analytes' molecular weight, for targeted Rmax of 30 RUs. Direct binding of analytes to ASGR1 was observed when a dose response titration of analytes in 2% DMSO was flown over the immobilized protein. Data analysis was done on either Biacore T200 Evaluation Software or Biacore Insight Evaluation Software.

[2] = biological target: T2, purified recombinant full length human PCSK9 with C-terminal biotinylated Avitag (human, UniProt Q8NBP7 31-692, biotin on the C-terminal Avi-tag); test: SPR, independently immobilized PCSK9
T2 construct: Signal peptide removal and autocatalytic prodomain cleavage are not described for the construct; also called hPCSK9; full length hPCSK9; not shown: Avi-tag

[3] = biological target: B3; test: SPR, independently immobilized ASGPR
Experimental: as §1

[4] = biological target: T2, purified recombinant full length human …; test: SPR, 1:1 binding fit, stepwise injections over avi-PCSK9
[5] = biological target: T3, triGalNAc-PCSK9 conjugate 4 (GalNAc-labeled PCSK9) (human, UniProt Q8NBP7 31-692, triGalNAc with a short PEG linker on a single solvent exposed lysine (position not given)); test: SPR, 1:1 binding fit, stepwise injections over ASGPR1; table under FIG. 16B
T3 construct: It is not clear whether the PCSK9 was biotinylated before conjugation; also called triGalNAc-hPCSK9 4; GalNAc trimer-PCSK9 protein conjugate; not shown: Avi-tag
Experimental: as §1

[6] = biological target: B2; test: SPR, 1:1 fit, stepwise injections over avi_deglycosylated_ASGPR1
[7] = biological target: T3, triGalNAc-PCSK9 conjugate 4 …; test: SPR, 1:1 binding fit, stepwise injections over ASGPR1; table under FIG. 16B; remark: listed apart in the source
Experimental: as §1

B1: anti-ASGPR-PCSK9 bispecific antibody (ASGPR_4F3_scFv-PCSK9_Fab_DANAPA_hIgG1_KiH) (bispecific antibody)
light: not shown
chain: not shown
heavy: QVQLVQSGAEVKKPGASVKVSCKASGYTFTSYYMHWVRQAPGQGLEWMGEISPFGGRTNYNEKFKSRVTMTRDTSTSTVYMELSSLRSEDTAVYYCARERPLYASDLWGQGTTVTVSSASTKGPSVFPLAPSSKSTSGGTAALGCLVKDYFPEPVTVSWNSGALTSGVHTFPAVLQSSGLYSLSSVVTVPSSSLGTQTYICNVNHKPSNTKVDKRVEPKSCDKTHTCPPCPAPELLGGPSVFLFPPKPKDTLMISRTPEVTCVVVAVSHEDPEVKFNWYVDGVEVHNAKTKPREEQYASTYRVVSVLTVLHQDWLNGKEYKCKVSNKALAAPIEKTISKAKGQPREPQVCTLPPSREEMTKNQVSLSCAVKGFYPSDIAVEWESNGQPENNYKTTPPVLDSDGSFFLVSKLTVDKSRWQQGNVFSCSVMHEALHNHYTQKSLSLSPGK
notes: also called ASGPR-PCSK9 bispecific antibody 5; bispecific ASGPR-PCSK9 Ab 5
His-ASGPR1(62-291)
  Kd: 3.27 nM
  koff: 5.93e-05 s⁻¹
  kon: 18200 M⁻¹ s⁻¹
[1]
  Kd: 2.73 nM
  koff: 0.000527 s⁻¹
  kon: 193000 M⁻¹ s⁻¹
[2]
  Kd: 0.2 nM
[3]
  Kd: 3 nM

## B2
[4]
  Kd: 156 nM

## B3
[5]
  Kd: 0.299 nM
[6]
  Kd: 1.34 nM
[7]
  Kd: 0.175 nM
